Measurements from paper PMC11874374.

Key:
[1] = target: histidine-tagged JAM-A (human) (UniProt Q9Y624); experiment: non-reducing gel electrophoresis
[2] = target: recombinant human JAM-A (Junctional Adhesion Molecule-A) (human) (UniProt Q9Y624); experiment: non-reducing gel electrophoresis

stoichiometry N [1]	stoichiometry N [2]	Substance
2		histidine-tagged JAM-A (from UniProt Q9Y624 28-299) (natural protein)
	3	recombinant human JAM-A (Junctional Adhesion Molecule-A) (from UniProt Q9Y624 28-299) (natural protein)
